Source: PMC2938385 (Molecular Biology of the Cell, 2010)

Legend:
[1] = target: T1, mDia2N (mDia2 residues 150-533) (UniProt Q9Z207 150-533); assay: SPR
T1 sequence (looked up): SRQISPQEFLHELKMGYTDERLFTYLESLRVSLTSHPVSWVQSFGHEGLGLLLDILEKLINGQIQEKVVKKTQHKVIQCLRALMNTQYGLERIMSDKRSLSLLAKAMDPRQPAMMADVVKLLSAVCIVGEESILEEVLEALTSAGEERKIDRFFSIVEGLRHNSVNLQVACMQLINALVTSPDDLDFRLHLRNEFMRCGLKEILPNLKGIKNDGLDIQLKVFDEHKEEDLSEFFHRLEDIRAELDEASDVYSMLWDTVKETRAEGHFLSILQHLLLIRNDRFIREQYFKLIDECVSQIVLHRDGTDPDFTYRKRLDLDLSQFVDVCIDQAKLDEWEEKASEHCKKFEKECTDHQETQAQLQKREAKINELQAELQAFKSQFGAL

[2] = target: T2, mDia3N (mDia3 residues 166-542) (UniProt O70566 166-542); assay: SPR
T2 sequence (looked up): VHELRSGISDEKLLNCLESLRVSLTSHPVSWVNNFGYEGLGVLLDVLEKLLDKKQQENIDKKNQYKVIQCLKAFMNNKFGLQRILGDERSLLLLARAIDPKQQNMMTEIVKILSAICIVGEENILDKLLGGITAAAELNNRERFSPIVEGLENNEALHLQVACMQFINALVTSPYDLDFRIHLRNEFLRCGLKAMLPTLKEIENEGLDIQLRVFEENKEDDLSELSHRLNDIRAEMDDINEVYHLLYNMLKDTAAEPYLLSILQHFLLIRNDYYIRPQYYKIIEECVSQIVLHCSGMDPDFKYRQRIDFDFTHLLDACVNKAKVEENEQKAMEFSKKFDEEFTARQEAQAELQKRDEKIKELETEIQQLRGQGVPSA

Kd [1]: 236 nM
Kd [2]: 1020 nM
B1: GST-anillin (1-91) (domain or fragment, human, UniProt Q9NQW6-2 1-91, looked up)
chain: MDPFTEKLLERTRARRENLQRKMAERPTAAPRSMTHAKRARQPLSEASNQQPLSGGEEKSCTKPSPSKKRCSDNTEVEVSNLENKQPVEST
